How the values were obtained:
[1] = set-up: species or system Sprague-Dawley rats; conditions: rat, in vivo
Description: We eluted the peptides with a 50 mM NaHCO3 solution and collected the eluted fractions containing the peptides. […] After adding 15 μL of trimethylamine to the Cy7-ester and peptide solution, we gently stirred the mixed solution overnight in the dark at room temperature. We desalted the resulting solution (1.94 mL) using a PD-10 column, eluted it with PBS (pH 7.4) with 0.001% methyl cellulose, and then adjusted its pH to 6.0. We obtained 4.0–6.0 mL of eluted solution and quantified the peptides by BCA assay or HPLC. We used the same analytical conditions for HPLC as previously described. […] We fed male Sprague-Dawley rats (seven weeks old) a nonfluorescent rodent diet (D10001) for a week before intranasal administration to avoid the intrinsic fluorescence of tissues. […] We performed the surgical procedure described by Hirai et al. to close the nasal cavity. Briefly, we incised the neck and cannulated the trachea and esophagus with polyethylene tubing (Hibiki No. 6) to maintain respiration and keep the solutions in the nasal cavity, respectively. We sealed the nasopalatine ducts with medical super glue (Aron Alpha A Sankyo, Daiichi-Sankyo Co., Ltd., Tokyo, Japan) to prevent the drainage of the solutions from the nasal cavity into the oral cavity. […] At the designated time points after administration (15, 30, and 60 or 120 min), we quickly exsanguinated the rats from the postcaval vein and flushed the administered solution by perfusion of PBS (pH 7.4). We decapitated the rats, carefully isolated the whole brain and right and left trigeminal nerves, and washed them with ice-cold PBS (pH 7.4). We placed the brain samples onto a brain matrix (MK-RC-01, Muromachi Kikai Co., Ltd., Tokyo, Japan) and sliced with blades (TCB-100) into twelve 2 mm-thick fractions. We placed the sliced brain and trigeminal nerve samples on a silicon board and mounted them on the stage of an in vivo imaging system (IVIS Lumina XR, Caliper Life sciences, Inc., Waltham, MA, USA). […] We quantified the fluorescence intensity of the region of interest of the images based on their contrast. To calculate the fluorescence intensity derived from Cy7 in the tissues, we subtracted the intrinsic fluorescence of an untreated area from the total intensity.

[2] = in vivo; cited from earlier work
Source text: During the permeation through the nasal mucosa, drugs come across microvascular vessels in the lamina propria directed toward the systemic circulation before reaching the brain or cerebrospinal fluid (CSF).

| Substance | distribution in the trigeminal nerves [1] | distribution ratio (olfactory bulb/trigeminal nerves) [1] | delivery to the brain by intranasal coadministration with L-penetratin [2] |
| --- | --- | --- | --- |
| Cy7-Exendin-4: Exendin-4 labeled with the Cy7 fluorescent dye via Cy7 Mono NHS Ester | high even without L-penetratin | dominantly increased | – |
| Cy7-insulin: insulin labeled with the Cy7 fluorescent dye via Cy7 Mono NHS Ester | high even without L-penetratin | dominantly increased | – |
| leptin | – | – | significantly increased |

— PMC8618983, “Investigation of the Transport Pathways Associated with Enhanced Brain Delivery of Peptide Drugs by Intranasal Coadministration with Penetratin” (Pharmaceutics, 2021)
